Data taken from article PMC4091690, “A Broadly Conserved G-Protein-Coupled Receptor Kinase Phosphorylation Mechanism Controls Drosophila Smoothened Activity” (PLoS Genetics, 2014).

B1: Smo^core (Drosophila Smoothened amino acids 1-663), C-terminally tagged with GFP10 S634 [Drosophila] / Costal-2 (Cos2), C-terminally tagged with Renilla luciferase II … (parent)
chain 1: MEIPIQVAVRIFPHRELKDLLRSFGPTEPKKDAQAVDEGADSKDSEAQVPAAEKDNPSISETDPNGNAEQDSAADSKTIPDANGNDSGQKDYPDSAYCVQAIPISASALGLPSALPGGDPMDSIAAGLIQVGPHTVPVTHALPSSSSQEQVYHQTVFPLITLFLEGFDASVVTYGQRGQGKSYTLYGNVQDPTLTDSTEGVVQLCVRDIFSHISLHPERTYAINVGFVEICGGDVCDLLGMGNIHCTNVDAVFHWLQVGLSARQSLPAHTLFTLTLEQQWVSKEGLLQHRLSTASFSDLCGTERCGDQPPGRPLDAGLCMLEQVISTLTDPGLMYGVNGNIPYGQTTLTTLLKDSFGGRAQTLVILCVSPLEEHLPETLGNLQFAFKVQCVRNFVIMNTYSDDNTMIVQPAEPVPESNSSAGPLSQAGPGDNFGLQFAASQWSKLVTNAEGLFSKLIDSKLITEVEKEQIEEWLFLKQECEECLSSTEAMRQQKQLVPILEAEEPEDVNSEAANSESPNSDNENDTDNESHRPDLDDKIESLMEEFRDKTDALILEKHAEYLSKHPKAVMQSQDREIEAQPPEENGDDRKVSIGSRRRSVQPGASLSTAELAMLNRVASQQPPPPIDPESVVDPLESSSGEGIRQAALAAAAATAPIEQLQKKLRKLVAEIEGKQRQLREIEETIQVKQNIIAELVKNSDTRSHAKQRFHKKRAKLEAECDKAKKQLGKALVQGRDQSEIERWTTIIGHLERRLEDLSSMKHIAGESGQKVKKLQQSVGESRKQADDLQKKLRKECKLRCQMEAELAKLRESRETGKELVKAQGSPEQQGRQLKAVQARITHLNHILREKSDNLEEQPGPEQQETLRHEIRNLRGTRDLLLEERCHLDRKLKRDKVLTQKEERKLLECDEAIEAIDAAIEFKNEMITGHRSIDTSDRIQREKGEQMLMARLNRLSTEEMRTLLYKYFTKVIDLRDSSRKLELQLVQLERERDAWEWKERVLSNAVRQARLEGERNAVLLQRQHEMKLTLMLRHMAEETSASSASYGERALAPACVAPPVQASSDFDYDHFYKGGGNPSKALIKAPKPMPTGSALDKYKDKEQRSGRNIFAKFHVLTRYASAAAAGSSGSTAEESTALIESTTTATATTTSTTTTGAVGKVKDKALVSFRPEQLKRLMPAPTATKVTRQKNKIIIQDASRRN
chain 2: SSAKFGSTTPASAQQSDVELEPINGTLNYRLYAKKGRDDKPWFDGLDSRHIQCVRRARCYPTSNATNTCFGSKLPYELSSLDLTDFHTEKELNDKLNDYYALKHVPKCWAAIQPFLCAVFKPKCEKINGEDMVYLPSYEMCRITMEPCRILYNTTFFPKFLRCNETLFPTKCTNGARGMKFNGTGQCLSPLVPTDTSASYYPGIEGCGVRCKDPLYTDDEHRQIHKLIGWAGSICLLSNLFVVSTFFIDWKNANKYPAVIVFYINLCFLIACVGWLLQFTSGSREDIVCRKDGTLRHSEPTAGENLSCIVIFVLVYYFLTAGMVWFVFLTYAWHWRAMGHVQDRIDKKGSYFHLVAWSLPLVLTITTMAFSEVDGNSIVGICFVGYINHSMRAGLLLGPLCGVILIGGYFITRGMVMLFGLKHFANDIKSTSASNKIHLIIMRMGVCALLTLVFILVAIACHVTEFRHADEWAQSFRQFIICKISSVFEEKSSCRIENRPSVGVLQLHLLCLFSSGIVMSTWCWTPSSIETWKRYIRKKCGKEVVEEVKMPKHKVIAQTWAKRKDFEDKGRLSITLYNTHTDPVGLNFDVNDLNSSETNDISSTWAAYLPQCVKRRMALTGAATGNSSSHGP

Variants of: B1
Assay: BRET
Conditions: with Costal-2 (Cos2), S2 cells treated with smo 3′UTR dsRNA to deplete endogenous Smo, parent: 100, read off a plot

response	Variant
30	chain 2 S573A T575A T579A T581A S595A S596A T598A S602A S603A T604A T620A T624A S627A S628A S629A
